Measured values as given in patent US20230070731A1, “COMPOSITIONS FOR SMALL MOLECULE CONTROL OF PRECISE BASE EDITING OF TARGET NUCLEIC ACIDS AND METHODS OF USE THEREOF” (THE TRUSTEES OF THE UNIVERSITY OF PENNSYLVANIA, priority 2020, published 2023).

How the values were obtained:
Assay in all cases: cell-based or functional assay
[1] = target: GFP11-AID*C (AID*-SPL2C) (human) (UniProt Q9GZX7)
[2] = target: AID′-seBE4max fragment containing FKBP12, the DNA deaminase C-terminus, nCas9, and two UGIs in series (human) (UniProt P62942)
[3] = target: evoA1-seBE4max fragment containing FKBP12, the DNA deaminase C-terminus, nCas9, and two UGIs in series (rat) (UniProt P62942)

AID*N-optGFP1-10 (AID*-SPL2N) (from UniProt Q9GZX7 1-72)
in vitro deaminase activity on a labeled oligonucleotide substrate (EC50 of enzyme) (fold reduced from intact AID*) [1]: 4

AID′-seBE4max fragment containing the DNA deaminase N-terminus and FRB (from UniProt Q9GZX7 1-72; P42345 2021-2113)
GFP^off cells by flow cytometry, targeting sgRNA, no rapamycin [2]: 7%
GFP^off cells by flow cytometry, targeting sgRNA, with rapamycin (200 nM) [2]: 35%

evoA1-seBE4max fragment containing the DNA deaminase N-terminus and FRB (from UniProt P38483 2-78; P42345 2021-2113)
fold induction of base editing by rapamycin across seven genomic loci [3]: 8.2 fold
on-target base editing across seven genomic loci (deep sequencing), no rapamycin [3]: 3%
on-target base editing across seven genomic loci (deep sequencing), with rapamycin [3]: 28%
